{"source": "patent US9347942B2", "about": "“Ultrasensitive cell based sensors and uses thereof” (CANVAX BIOTECH SL, priority 2010, dated 2016)", "type_in_all_cases": "cell-based", "key": {"[1]": {"target": "T1, SSTR2 (Homo sapiens, UniProt P30874)", "T1 construct": "the entire human GPCR; mouse immunoglobulin kappa signal peptide (N); expressed in transfected cells", "T1 sequence (P30874 2-369)": "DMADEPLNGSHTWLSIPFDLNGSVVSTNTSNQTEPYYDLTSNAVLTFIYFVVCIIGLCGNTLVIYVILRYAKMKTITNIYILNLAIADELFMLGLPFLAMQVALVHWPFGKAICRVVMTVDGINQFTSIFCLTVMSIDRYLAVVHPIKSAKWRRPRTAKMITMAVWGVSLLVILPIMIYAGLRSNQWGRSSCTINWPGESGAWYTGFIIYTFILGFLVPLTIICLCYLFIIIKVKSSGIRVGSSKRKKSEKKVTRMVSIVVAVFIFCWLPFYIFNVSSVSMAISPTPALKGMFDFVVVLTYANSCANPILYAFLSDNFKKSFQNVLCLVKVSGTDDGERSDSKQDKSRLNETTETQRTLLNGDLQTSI", "test": "Agonist-induced exocytosis of granzyme B, sandwich ELISA (Example 9)", "settings": "agonist 10 uM, 60 minutes", "description": "(§1) Human granzyme B was selected as reporter, chimeric promoter of hCMV-MoLV5′LTR as promoter for reporter expression, RBL-2H3 as hemopoyetic cells with professional regulated exocytosis and several GPCRs as exocytosis modulators under the control of Moloney Leukaemia virus 5′-LTR (MoMLV5′LTR, SEQ ID NO:3) as promoter for expression of exocytosis modulators. […] Vectors for expression of granzyme B had the chimeric promoter of hCMV-MoLV5′LTR-GranzymeB-IRES-NGFR with hygromycin resistance for stable transfections. Vectors for GPCR were electroporated first, cells were selected with neomycin at 500 ug/mL for about two weeks and cells were analysed by flow cytometry (Guava Technologies, USA) with anti-cmyc tag antibody (anti-cmyc-FITC, clone 9E10, Sigma-Aldrich, USA) for surface expression. Positive cells were separated by magnetic separation using anti-cmyc monoclonal antibody conjugated to biotin (Miltenyi Biotec, Germany) and streptavidin-MACS (Miltenyi Biotec, Germany). After growing positive fraction of cells was again analysed by flow cytometry with the anti-cmyc tag antibody. Positive cells were individually electroporated with the vector for expression human granzyme B using a microporator (Digital Bio Technology, South Korea) and after 48 hours hygromycin at 1500 ug/mL and neomycin at 500 ug/mL were added to culture for selection. After selection for about 2 weeks cells were analysed by flow cytometry (Guava Technologies, USA) with an antibody against NGFR coupled to FITC. Positive population where magnetically separated by MACS using anti-NGFR-MACS sup.R (Miltenyi Biotec, Germany). Sorted populations were again analysed again by flow cytometry to check both the expression of the GPCR with the anti-cmyc tag antibody and with anti-NGFR antibody to check granzyme B expression. […] GPCRs included were: SSTR2 and CHRM2 as alpha-i coupled GPCRs; AGTR1 and bradykinin type B1 receptor (BDKRB1) as alpha-q coupled GPCRs and AVPR2 as alpha-s coupled GPCR. […] Cells were seeded the night before experiment at 100.000 cells per well of a 96-well microplate in 100 uL of complete cell culture medium. Next day cells were washed with HBSS buffer and incubated with the ligand (agonist) at 10 uM of each GPCR in 30 uL of HBSS buffer at 37 Celsius degrees for 60 minutes and after centrifugation at 400 g for 5 minutes supernatants were analysed for human granzyme B protein by a sandwich ELISA specific for human granzyme B (Ucytech, Netherlands)."}, "[2]": {"target": "T2, AGTR1 (Homo sapiens, UniProt P30556)", "T2 construct": "the entire human GPCR; mouse immunoglobulin kappa signal peptide (N); expressed in transfected cells", "T2 sequence (P30556 2-359)": "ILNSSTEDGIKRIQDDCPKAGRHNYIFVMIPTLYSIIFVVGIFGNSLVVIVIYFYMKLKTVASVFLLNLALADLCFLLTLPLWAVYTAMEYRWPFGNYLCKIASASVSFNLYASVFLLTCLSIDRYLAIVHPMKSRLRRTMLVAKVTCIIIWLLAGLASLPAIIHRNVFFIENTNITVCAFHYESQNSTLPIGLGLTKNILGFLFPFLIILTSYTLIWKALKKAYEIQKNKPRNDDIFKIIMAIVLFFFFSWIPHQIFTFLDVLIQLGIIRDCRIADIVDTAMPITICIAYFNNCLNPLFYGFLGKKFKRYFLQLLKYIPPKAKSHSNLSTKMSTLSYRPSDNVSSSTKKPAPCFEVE", "test": "Agonist-induced exocytosis of granzyme B, sandwich ELISA (Example 9)", "settings": "agonist 10 uM, 60 minutes", "description": "as §1"}, "[3]": {"target": "T3, bradykinin type B1 receptor (Homo sapiens, UniProt P46663)", "T3 construct": "the entire human GPCR; mouse immunoglobulin kappa signal peptide (N); expressed in transfected cells", "T3 sequence (P46663 5-353 limits assumed)": "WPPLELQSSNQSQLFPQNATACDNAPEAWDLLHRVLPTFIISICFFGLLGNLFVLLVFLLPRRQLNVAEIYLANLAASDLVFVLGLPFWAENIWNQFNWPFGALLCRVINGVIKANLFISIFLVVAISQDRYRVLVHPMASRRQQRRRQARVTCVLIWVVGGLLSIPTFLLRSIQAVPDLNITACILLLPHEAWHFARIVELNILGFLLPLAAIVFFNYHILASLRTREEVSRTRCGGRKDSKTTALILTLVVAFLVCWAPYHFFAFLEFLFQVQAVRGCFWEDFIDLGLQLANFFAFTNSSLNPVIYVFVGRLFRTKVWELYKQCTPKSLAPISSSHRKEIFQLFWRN", "test": "Exocytosis time optimisation, granzyme B FRET readout (Example 12)", "settings": "agonist 10 uM", "description": "An experiment was designed to optimize assay conditions such as: exocytosis time, number of steps needed for assay and uses of cells in suspension. Cells developed in example #9 expressing both a GPCR and human granzyme B were used in this example for optimization of exocytosis time. GPCRs included were CHRM2 (an alpha-i coupled GPCR) and bradykinin type B1 receptor (an alpha-q coupled GPCR). Carbachol and kallinin from Sigma-Aldrich (USA) were used as ligands for CHRM2 and bradykinin type B1 receptor, respectively and used at 10 uM final concentration in HBSS buffer. Cells were seeded the night before experiment at 20.000 cells per well of a 96-well microplate in 100 uL of complete cell culture medium. Next day cells were washed with HBSS buffer and incubated with the ligand (agonist) at 10 uM of each GPCR in 30 uL of HBSS buffer at 37 Celsius degrees for 5, 15, 30 or 60 minutes and after centrifugation at 400 g for 5 minutes supernatants were analysed for human granzyme B activity using FAM-[…]-TAMRA at 1 uM final concentration as the human granzyme B substrate. Released FAM was measured by excitation at 485 nm and emission at 535 nm in a BMG Labtech microplate fluorimeter in 96 well microplates. Microplates were incubated at 37 Celsius degrees on the reader and were kinetically read at 0, 15, 30, 45 and 60 minutes. Control wells with substrate only in HBSS buffer were included to subtract autofluorescence of substrates to both cells treated with ligands and to cells treated with HBSS buffer only. […] The signal to background is lower at longer exocytosis times due to the higher increase in basal release than the increase in specific signal after the first 5 to 15 minutes. Thus, any exocytosis time from probably less than 5 minutes to at least 60 minutes may be used for the methods of the present invention but longer exocytosis times produce a sensor with a lower signal to background, exocytosis is nearly complete at 5 minutes and signal to background is good for a robust sensor."}, "[4]": {"target": "T4, bradykinin type B1 receptor (BDKRB1) (Homo sapiens, UniProt P46663)", "T4 construct": "the entire human GPCR; mouse immunoglobulin kappa signal peptide (N); expressed in transfected cells", "T4 sequence (P46663 5-353 limits assumed)": "T3 sequence (P46663 5-353 limits assumed)", "test": "Agonist-induced exocytosis of granzyme B, sandwich ELISA (Example 9)", "settings": "agonist 10 uM, 60 minutes", "description": "as §1"}, "[5]": {"settings": "100.000 cells, dilution 2250, after subtraction of 0.2 blank"}}, "data": [{"molecule": "CC(C)[C@@H]1NC(=O)[C@H](CCCCN)NC(=O)[C@@H](Cc2c[nH]c3ccccc23)NC(=O)[C@H](Cc2ccc(O)cc2)NC(=O)[C@H](C)N(C)C(=O)[C@H](Cc2ccccc2)NC1=O", "note": "[Seglitide, seglitide]", "values": [{"measurement": "Absorbance at maximal dilution of ELISA tested", "setting": "[1]; [5]", "result": 2.4}, {"measurement": "Sensitivity (minimal amount of cells needed)", "setting": "[1]; granzyme B ELISA", "result": "<150", "unit": "cells"}]}, {"molecule": "angiotensin", "values": [{"measurement": "Absorbance at maximal dilution of ELISA tested", "setting": "[2]; [5]", "result": 1.8}, {"measurement": "Sensitivity (minimal amount of cells needed)", "setting": "[2]; granzyme B ELISA", "result": "<150", "unit": "cells"}]}, {"molecule": "kallinin", "values": [{"measurement": "exocytosis, % of maximal", "setting": "[3]; 5 minutes, 20.000 cells", "result": "> 90", "unit": "%"}, {"measurement": "signal to background (S/B)", "setting": "[3]; medium taken at 5 to 15 minutes", "result": "20-22"}, {"measurement": "signal to background (S/B)", "setting": "[3]; medium taken at 30 minutes", "result": "15-17"}, {"measurement": "signal to background (S/B)", "setting": "[3]; medium taken at 60 minutes", "result": "8-10"}, {"measurement": "Absorbance at maximal dilution of ELISA tested", "setting": "[4]; [5]", "result": 0.8}, {"measurement": "Sensitivity (minimal amount of cells needed)", "setting": "[4]; granzyme B ELISA", "result": "<150", "unit": "cells"}]}]}
